These results are taken from publication PMC7431817.

pKd: −log10 of the molar value.

Test [1] deals with EGFR-GFP (epidermal growth factor receptor fused to GFP) on F1-4 cells (UniProt P00533). The test is described as follows: flow cytometry on cells; F1-4 cells treated with 2 uM latrunculin-B at 37°C for 10 min, then concentration series of TAMRA-EGF, 1 h on ice; Hill equation fit. (Flow cytometry measures light scatter and fluorescence of single cells or particles in a stream.)
The target is the same in test [2]. The test is described as follows: flow cytometry on cells; cells treated with 5 uM lapatinib at 37°C for 1 h and labelled with TAMRA-EGF in the continued presence of the inhibitor, 1 h on ice; Hill equation fit, apparent Kd; low expresser gate.
For test [3] the target is unchanged. The test is described as follows: flow cytometry on cells; cells treated with 5 uM erlotinib at 37°C for 1 h and labelled with TAMRA-EGF in the continued presence of the inhibitor, 1 h on ice; Hill equation fit, apparent Kd; medium expresser gate.
For test [4] the target is unchanged. The test is described as follows: flow cytometry on cells; cells treated with 5 uM lapatinib at 37°C for 1 h and labelled with TAMRA-EGF in the continued presence of the inhibitor, 1 h on ice; Hill equation fit, apparent Kd; medium expresser gate.
Test [5] shares this target. Briefly: flow cytometry on cells; global fit of the paper's model (conformations of ECD and kinase domain, dimerization, ligand binding to monomers and dimers) to all 12 TAMRA-EGF binding data sets (untreated, erlotinib, lapatinib; three gates and all cells), 1 h on ice; K2-K9 shared; ligand constants in nM, receptor dimerization constants in number of receptors/cell.
Test [6] shares this target. The test is described as follows: flow cytometry on cells; two-fold dilution series of TAMRA-EGF in PBS + 1% BSA on suspended F1-4 cells, 1 h on ice, measured without washing; Hill equation fit, apparent Kd; untreated (control) cells, all cells.
For test [7] the target is unchanged. Briefly: flow cytometry on cells; F1-4 cells incubated with a concentration series of EGF for 24 h on ice; Hill equation fit; the paper finds internalized EGF and questions equilibrium at this time.
Test [8] shares this target. Briefly: flow cytometry on cells; cells treated with 5 uM lapatinib at 37°C for 1 h and labelled with TAMRA-EGF in the continued presence of the inhibitor, 1 h on ice; Hill equation fit, apparent Kd; all cells.
For test [9] the target is unchanged. The test is described as follows: flow cytometry on cells; cells treated with 5 uM erlotinib at 37°C for 1 h and labelled with TAMRA-EGF in the continued presence of the inhibitor, 1 h on ice; Hill equation fit, apparent Kd; high expresser gate.
Test [10] shares this target. The test is described as follows: flow cytometry on cells; cells treated with 5 uM lapatinib at 37°C for 1 h and labelled with TAMRA-EGF in the continued presence of the inhibitor, 1 h on ice; Hill equation fit, apparent Kd; high expresser gate.

In general, pKd refers to the negative decadic logarithm of the Kd, by convention in mol/L. Consider “Tetramethylrhodamine-labeled EGF (ligand)”, for which the pKd in [1] is 8.09; in test [2] it was 8.20; in test [3], 8.74; in test [4] it was 8.29; in test [6], 8.47; in test [7] it was 8.28. The pKd is 8.31 in test [8], 8.77 in [9] and 8.31 in test [10]. The substance also showed a K3, Kd of EGF binding to a monomer with extended ECD in [5] of 1.3 nM. The same substance returned a K5, Kd of binding of the first EGF to a dimer with inactive, symmetric kinase dimer in test [5] of 95 nM. The substance further showed a K6, Kd of binding of the second EGF to a dimer with inactive, symmetric kinase dimer in test [5] of 0.45 nM. In test [5], this substance yielded a K9, Kd of binding of the second EGF to a dimer with active, asymmetric kinase dimer of 2.96 nM.
